# PMC11176301 (2024)
# B1: Clone 81 (TCR)
# alpha TRAV29DV5 TRAJ45 CDR3: CAASRYSGGGADGLTF
# beta TRBV12-4 TRBJ1-1 CDR3: CASSPQGGNTEAFF
# B2: P196-1 (TCR)
# alpha TRAV29DV5 TRAJ45 CDR3: CAASRYSGGGADGLTF
# beta TRBV12-4 TRBJ1-1 CDR3: CASSLQGGNTEAFF
# B3: Clone 566 (TCR)
# alpha TRAV29DV5 TRAJ45 CDR3: CAASRYSGGGADGLTF
# beta TRBV12-4 TRBJ1-1 CDR3: CASSVQGGNTEAFF
# Experiments:
# [1] = biological target: T1, GAD65 peptide on HLA-DRA*01:01 / HLA-DRB1*04:01 (human); experiment: proliferation
# T1 peptide: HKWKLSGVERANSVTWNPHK
# [2] = biological target: T2, Influenza A MP54 (influenza M protein) peptide on HLA-DRA*01:01 / HLA-DRB1*04:01 (human); experiment: proliferation
# T2 peptide: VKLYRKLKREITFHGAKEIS
# [3] = biological target: T2, Influenza A MP54 (influenza M protein) …; experiment: activation reporter or marker
binder,measurement,setting,value
B1,binding result,[1],recognises
same,binding result,[2],recognises
B2,binding result,[3],recognises
same,binding result,[1],recognises
B3,binding result,[1],recognises
same,binding result,[2],recognises
